Consider four molecules from paper PMC6321028, “2′-Fluoro-Pyrimidine-Modified RNA Aptamers Specific for Lipopolysaccharide Binding Protein (LBP)”.

By Kd is commonly meant the constant that tells how readily two partners part at equilibrium.

Data set [1] has as its target T1, murine lipopolysaccharide binding protein (mLBP-His6) (Mus musculus, UniProt Q61805 25-481).
T1 sequence: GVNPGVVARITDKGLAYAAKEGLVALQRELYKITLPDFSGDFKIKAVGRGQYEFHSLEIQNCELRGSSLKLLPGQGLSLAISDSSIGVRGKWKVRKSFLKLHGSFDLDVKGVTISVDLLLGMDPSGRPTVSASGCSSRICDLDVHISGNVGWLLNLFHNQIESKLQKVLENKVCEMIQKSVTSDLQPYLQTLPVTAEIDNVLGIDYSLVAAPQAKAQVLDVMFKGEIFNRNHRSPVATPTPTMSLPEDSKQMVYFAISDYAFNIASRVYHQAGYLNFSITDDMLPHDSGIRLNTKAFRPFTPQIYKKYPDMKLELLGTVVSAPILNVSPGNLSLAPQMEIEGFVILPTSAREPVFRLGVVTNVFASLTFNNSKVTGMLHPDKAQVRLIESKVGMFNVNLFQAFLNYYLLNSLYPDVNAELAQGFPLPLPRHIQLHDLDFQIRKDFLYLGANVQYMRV
Put plainly: nitrocellulose filter binding; affinity comparable to A011, among the best binders (screen range about 200-800 nM); 140 mM NaCl, 2.7 mM KCl, 10 mM Na2HPO4, 1.76 mM KH2PO4, 2 mM MgCl2; pH not stated; 37 °C, 1 h; RNA refolded; mLBP 15-1000 nM. The note with it: protein: recombinant; tags: C-terminal His6; label: 32P; three-helix junction (predicted).

The target in data set [2] is T1, murine lipopolysaccharide binding …. Put plainly: 140 mM NaCl, 2.7 mM KCl, 10 mM Na2HPO4, 1.76 mM KH2PO4, 2 mM MgCl2; pH not stated; 37 °C, 1 h; RNA refolded; mLBP 15-1000 nM. The note with it: protein: recombinant; tags: C-terminal His6; three-helix junction.
Data set [3] has the same target. Put plainly: boundary experiment, nitrocellulose filter retention; 200 or 400 nM mLBP; no apparent effect on affinity; 140 mM NaCl, 2.7 mM KCl, 10 mM Na2HPO4, 1.76 mM KH2PO4, 2 mM MgCl2; pH not stated; 37 °C, 1 h; RNA refolded; mLBP 15-1000 nM. The note with it: protein: recombinant; tags: C-terminal His6; label: 5' 32P; P1 pairs U6-G11 with C65-A70.
Another data set concerns the target EF-Tu (Thermus thermophilus, UniProt Q5SHN6 2-406). Kind of data set: nitrocellulose filter binding; 140 mM NaCl, 2.7 mM KCl, 10 mM Na2HPO4, 1.76 mM KH2PO4, 2 mM MgCl2; pH not stated; 37 °C, 1 h; RNA refolded; mLBP 15-1000 nM. The note with it: label: 32P (internal or 5'); three-helix junction, helices P1-P4.
For data set [4], the target named is T1, murine lipopolysaccharide binding …. Kind of data set: nitrocellulose filter binding; 2 mM MgCl2; 140 mM NaCl, 2.7 mM KCl, 10 mM Na2HPO4, 1.76 mM KH2PO4, 2 mM MgCl2; pH not stated; 37 °C, 1 h; RNA refolded; mLBP 15-1000 nM. The note with it: protein: recombinant; tags: C-terminal His6; label: 32P (internal or 5'); three-helix junction, helices P1-P4.

EF-Tu, sequence (Q5SHN6 2-406): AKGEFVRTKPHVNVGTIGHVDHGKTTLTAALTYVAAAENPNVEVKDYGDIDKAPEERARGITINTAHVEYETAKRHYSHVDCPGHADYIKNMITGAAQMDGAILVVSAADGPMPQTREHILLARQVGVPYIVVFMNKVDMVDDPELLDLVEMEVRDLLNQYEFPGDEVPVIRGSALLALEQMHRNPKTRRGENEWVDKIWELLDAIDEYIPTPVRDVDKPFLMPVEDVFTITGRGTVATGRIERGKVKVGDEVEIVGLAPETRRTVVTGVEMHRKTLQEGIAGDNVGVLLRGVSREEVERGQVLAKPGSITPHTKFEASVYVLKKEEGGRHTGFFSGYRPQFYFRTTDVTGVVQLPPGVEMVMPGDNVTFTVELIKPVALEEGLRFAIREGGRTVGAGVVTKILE

B1: A036 (XNA)
RNA: GGGAAUUCGAGCUCGGUACCGAUAUACGGUGCCGCUUCUCUAACCGGUGGUCAUGCGGUUGGACGCUCGAACAGACUACUGCAGGCAUGCAAGCUUGG
modifications: 2'-fluoro C and U
Consider B1, for which the binding result in data set [1] is on record as “binds”.

B2: A011 del 76-100 (XNA)
RNA: GGGAAUUCGAGCUCGGUACCGGACUGUGGAUUGUUCUGGGUGCCGCUUCUCCGAAUAUCGGACUCUCGAACUCCU
modifications: 2'-fluoro C and U
As to B2, the binding signal in data set [2] is ~5 fold reduction in affinity vs A011.

B3: A011 1-70 (3' boundary fragment) (XNA)
RNA: GGGAAUUCGAGCUCGGUACCGGACUGUGGAUUGUUCUGGGUGCCGCUUCUCCGAAUAUCGGACUCUCGAA
modifications: 2'-fluoro C and U
As to B3, the binding result in data set [3] is recorded as “binds”.

B4: A011 (XNA)
RNA: GGGAAUUCGAGCUCGGUACCGGACUGUGGAUUGUUCUGGGUGCCGCUUCUCCGAAUAUCGGACUCUCGAACUCCUGGGGACUGCAGGCAUGCAAGCUUGG
modifications: 2'-fluoro C and U (all pyrimidines); A and G ribo
Turning to B4, the binding result with EF-Tu is on record as “no binding”. Besides, the Kd in data set [4] stood at 267 nM.
